Drawing on patent publication US20150247135A1 (LIGACEPT, published 2015), this text covers Kd for one molecule.

Assay [1] addresses T1, E4-Fc (amino acids 1-497 of ErbB4 joined to the IgG2Fc portion) (UniProt Q15303 26-522; P01859 104-326 = IgG part).
T1 construct: range 1-497;domain: IgG2Fc; Control trap; The 1-497 range counts on mature ErbB4 without the signal peptide; also called ErbB4-IgGFc
In words: trap coated on 96 well plate, varying HRG1β, detection antibody; Std Error Kd 2.92 nM. How it is done:
(§1) Purified trap molecules were coated on 96 well plates and incubated with either TGFα or HRG1β. Then detection antibodies against TGFα or HRG1β were used to measure the affinity (Kd) and amount of bound ligand (Bmax).
(§2) Traps were coated on 96 well plates and incubated with varying concentrations of either TGFα or HRG1β. Detection antibodies against TGFα or HRG1β were used to measure the affinity (Kd) and amount of bound ligand (Bmax).

In assay [2] the target is T1, E4-Fc (amino acids 1-497 of ErbB4 …). Briefly: trap coated on 96 well plate, varying HRG1β, detection antibody; Std Error Kd 3.128 nM. The procedure:
as §1, §2

T1 sequence (Q15303 other isoform, or with tags, fused parts or gaps limits assumed): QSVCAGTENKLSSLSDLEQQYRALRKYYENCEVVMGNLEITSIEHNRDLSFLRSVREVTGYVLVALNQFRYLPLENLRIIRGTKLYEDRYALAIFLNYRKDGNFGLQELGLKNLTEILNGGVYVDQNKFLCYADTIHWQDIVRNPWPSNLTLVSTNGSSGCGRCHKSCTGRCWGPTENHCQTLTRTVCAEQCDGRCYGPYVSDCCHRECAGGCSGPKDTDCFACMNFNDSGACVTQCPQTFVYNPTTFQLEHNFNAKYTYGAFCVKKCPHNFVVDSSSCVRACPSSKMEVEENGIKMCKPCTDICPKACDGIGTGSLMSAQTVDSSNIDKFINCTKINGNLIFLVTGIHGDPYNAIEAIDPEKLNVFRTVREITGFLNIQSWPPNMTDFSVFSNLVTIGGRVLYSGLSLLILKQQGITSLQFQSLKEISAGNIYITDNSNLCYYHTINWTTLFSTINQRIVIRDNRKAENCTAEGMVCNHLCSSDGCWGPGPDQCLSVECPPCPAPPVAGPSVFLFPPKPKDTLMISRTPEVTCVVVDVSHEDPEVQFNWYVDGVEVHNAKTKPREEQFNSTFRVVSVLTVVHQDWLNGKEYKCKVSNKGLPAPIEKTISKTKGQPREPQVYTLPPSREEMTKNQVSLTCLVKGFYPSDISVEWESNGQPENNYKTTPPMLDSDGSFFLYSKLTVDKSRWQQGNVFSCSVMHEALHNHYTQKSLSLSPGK

B1: HRG1β (ligand, UniProt Q02297-6 177-241, looked up)
chain: SHLVKCAEKEKTFCVNGGECFMVKDLSNPSRYLCKCPNEFTGDRCQNYVMASFYKHLGIEFMEAE
notes: Soluble ligand incubated with the coated traps; also called heregulin
The Kd is the free concentration of one partner at which half of the binding sites on the other are occupied at equilibrium, for simple one-to-one binding. A higher Kd goes with lower affinity. B1: the dissociation constant Kd came to 21.2 nM in assay [1] and 14.5 nM in assay [2].
